For one substance, AUC (potency) above that on the lizard mimotope and AUC (potency) above that on the rodent mimotope results are on record in publication PMC7150784.

The target of assay [1] is amphibian alpha-1 nAChR orthosteric site mimotope (Xenopus laevis). In words: BLI; Octet RED 96; […] (1 µg/mL) […]; running buffer 1X DPBS with 0.1% BSA and 0.05% Tween-20; […], in triplicate.
Assay [2] addresses lizard alpha-1 nAChR orthosteric site mimotope. In words: BLI.

Consider “alpha-cobratoxin (from UniProt P01391 1-71) (natural protein)”, for which, in assay [1], the AUC (potency) above that on the lizard mimotope amounted to 50% and the AUC (potency) above that on the rodent mimotope was determined as 98%. The substance further gave an AUC (potency) above that on the rodent mimotope in assay [2] of 30%.
